For the experiment, the target named is T1, PatZ-L813o-NBAK (E. coli, UniProt P76594 1-886, L813o-NBAK, o-NBAK (o-nitrobenzyl alcohol-derived lysine, unnatural amino acid photo-crosslinker) at 813).
T1 construct: PatZ, protein lysine acetyltransferase of E. coli, amber codon at L813 read as o-NBAK; o-NBAK is a lysine derivative; also called PatZ-L813o-NBAK mutant; o-NBAK encoded enzyme; source: E. coli BL21(DE3), in living cells; also purified (Ni-NTA) for in vitro crosslinking
T1 sequence (looked up): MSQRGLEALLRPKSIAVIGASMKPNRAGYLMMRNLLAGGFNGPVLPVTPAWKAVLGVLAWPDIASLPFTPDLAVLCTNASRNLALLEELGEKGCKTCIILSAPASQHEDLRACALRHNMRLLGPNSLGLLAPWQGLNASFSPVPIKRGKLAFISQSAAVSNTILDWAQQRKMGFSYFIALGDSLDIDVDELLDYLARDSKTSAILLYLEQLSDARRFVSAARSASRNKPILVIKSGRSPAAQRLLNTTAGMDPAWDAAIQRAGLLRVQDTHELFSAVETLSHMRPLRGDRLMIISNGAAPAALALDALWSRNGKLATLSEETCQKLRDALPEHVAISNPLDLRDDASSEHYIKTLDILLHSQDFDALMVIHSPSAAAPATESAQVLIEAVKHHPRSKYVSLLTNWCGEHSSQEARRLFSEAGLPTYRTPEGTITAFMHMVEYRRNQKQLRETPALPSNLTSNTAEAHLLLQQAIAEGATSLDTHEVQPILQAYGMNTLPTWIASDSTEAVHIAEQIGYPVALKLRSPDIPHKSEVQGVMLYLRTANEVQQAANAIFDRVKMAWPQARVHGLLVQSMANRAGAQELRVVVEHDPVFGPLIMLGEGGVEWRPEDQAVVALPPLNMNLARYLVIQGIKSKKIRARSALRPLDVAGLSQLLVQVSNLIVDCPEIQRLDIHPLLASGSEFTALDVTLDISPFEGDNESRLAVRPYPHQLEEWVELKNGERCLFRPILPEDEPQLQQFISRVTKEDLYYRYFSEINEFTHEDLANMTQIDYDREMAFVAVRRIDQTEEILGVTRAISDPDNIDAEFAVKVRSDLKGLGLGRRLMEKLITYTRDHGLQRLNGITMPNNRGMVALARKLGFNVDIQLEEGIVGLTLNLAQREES
Briefly: cross-linking; in vitro: purified o-NBAK enzyme mixed with purified partner protein in PBS 150 mM NaCl pH 7.5, 365 nm UV 15 min on ice, SDS-PAGE, extra band cut, LC-MS/MS of crosslinked peptides. As to conditions: both partners purified.

B1: DnaJ (purified recombinant) (natural protein, E. coli, UniProt P08622 1-376, looked up)
chain: MAKQDYYEILGVSKTAEEREIRKAYKRLAMKYHPDRNQGDKEAEAKFKEIKEAYEVLTDSQKRAAYDQYGHAAFEQGGMGGGGFGGGADFSDIFGDVFGDIFGGGRGRQRAARGADLRYNMELTLEEAVRGVTKEIRIPTLEECDVCHGSGAKPGTQPQTCPTCHGSGQVQMRQGFFAVQQTCPHCQGRGTLIKDPCNKCHGHGRVERSKTLSVKIPAGVDTGDRIRLAGEGEAGEHGAPAGDLYVQVQVKQHPIFEREGNNLYCEVPINFAMAALGGEIEVPTLDGRVKLKVPGETQTGKLFRMRGKGVKSVRGGAQGDLLCRVVVETPVGLNERQKQLLQELQESFGGPTGEHNSPRSKSFFDGVKKFFDDLTR
notes: DnaJ, E. coli; may be in the Supplementary Information
In the case of B1, the binding result is listed as “binds”.

Values taken from article PMC10874396, “Spatiotemporal and direct capturing global substrates of lysine-modifying enzymes in living cells” (Nature Communications, 2024).
